In article PMC9482650, “Quantitative fragmentomics allow affinity mapping of interactomes” (Nature Communications, 2022):

T1: APBA1_2, Q02410
T1 sequence (Q02410 742-832, limits assumed, looked up): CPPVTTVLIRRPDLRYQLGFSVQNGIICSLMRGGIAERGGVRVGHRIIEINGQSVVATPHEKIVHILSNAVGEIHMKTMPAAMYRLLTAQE

T2: CARD11, Q9BXL7
T2 sequence (Q9BXL7 662-765, limits assumed, looked up): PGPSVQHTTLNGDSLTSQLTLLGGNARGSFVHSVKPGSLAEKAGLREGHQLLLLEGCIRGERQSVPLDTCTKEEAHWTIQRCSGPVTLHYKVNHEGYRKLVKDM

T3: DFNB31_3, Q9P202
T3 sequence (Q9P202 811-907, limits assumed, looked up): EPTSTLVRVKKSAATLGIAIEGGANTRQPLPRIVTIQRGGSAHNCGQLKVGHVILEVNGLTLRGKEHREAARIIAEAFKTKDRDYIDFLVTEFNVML

T4: GRIP1_2, Q9Y3R0
T4 sequence (Q9Y3R0 145-248, limits assumed, looked up): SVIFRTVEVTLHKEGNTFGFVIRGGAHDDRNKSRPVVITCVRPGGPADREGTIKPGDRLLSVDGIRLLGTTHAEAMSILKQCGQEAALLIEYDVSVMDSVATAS

T5: GRIP1_3, Q9Y3R0
T5 sequence (Q9Y3R0 247-346, limits assumed, looked up): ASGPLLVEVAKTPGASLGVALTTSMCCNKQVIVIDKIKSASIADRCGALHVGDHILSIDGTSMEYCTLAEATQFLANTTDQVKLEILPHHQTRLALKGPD

T6: GRIP1_5, Q9Y3R0
T6 sequence (Q9Y3R0 568-668, limits assumed, looked up): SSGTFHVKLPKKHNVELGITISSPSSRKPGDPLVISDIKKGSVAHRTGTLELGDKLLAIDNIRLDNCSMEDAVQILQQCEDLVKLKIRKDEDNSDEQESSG

T7: LIN7C, Q9NUP9
T7 sequence (Q9NUP9 88-185, limits assumed, looked up): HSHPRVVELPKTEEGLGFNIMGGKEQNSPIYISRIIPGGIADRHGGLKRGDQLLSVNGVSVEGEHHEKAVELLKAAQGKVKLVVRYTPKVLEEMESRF

T8: MPP7, Q5T2T1
T8 sequence (Q5T2T1 134-230, limits assumed, looked up): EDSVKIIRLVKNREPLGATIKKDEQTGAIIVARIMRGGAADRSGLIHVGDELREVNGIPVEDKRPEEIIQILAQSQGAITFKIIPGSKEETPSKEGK

T9: SYNJ2BP, P57105
T9 sequence (P57105 8-110, limits assumed, looked up): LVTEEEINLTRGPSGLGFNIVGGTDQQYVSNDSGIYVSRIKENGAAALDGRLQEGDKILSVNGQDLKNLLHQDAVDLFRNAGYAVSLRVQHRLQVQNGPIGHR

T10: TJP3_3, O95049
T10 sequence (O95049 375-456, limits assumed, looked up): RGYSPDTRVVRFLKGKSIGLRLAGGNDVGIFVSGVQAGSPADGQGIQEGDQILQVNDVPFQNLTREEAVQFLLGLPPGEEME


These binders were tested against AHNAK1, Q09666 (assay: holdup assay). Conditions: plain residues with an end cap or a label only (N-terminal biotin on a linker: ado-ado).
Chain of AHNAK1, Q09666 (Q09666 4-100): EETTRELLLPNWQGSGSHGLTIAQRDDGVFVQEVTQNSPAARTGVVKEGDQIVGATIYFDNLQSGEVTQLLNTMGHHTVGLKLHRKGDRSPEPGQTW
Design: key: below the threshold = too weak to quantify, mostly under pKd 3.1 to 4
EVNETDDTKM [KCNJ1, P48048] was tested, and the pKd was “below the threshold”. For LSEFKAMDSI [CTNNA1, P35221], the pKd was “below the threshold”.

The binders below were run against T1, APBA1_2, Q02410 (assay: holdup assay). Conditions: plain residues with an end cap or a label only (N-terminal biotin on a linker: ado-ado).
Design: key: below the threshold = too weak to quantify, mostly under pKd 3.1 to 4
In the case of EVNETDDTKM [KCNJ1, P48048], the pKd is reported as “below the threshold”. In the case of LSEFKAMDSI [CTNNA1, P35221], the pKd is reported as “below the threshold”.

What follows are binders tested against T2, CARD11, Q9BXL7 (assay: holdup assay). Conditions: plain residues with an end cap or a label only (N-terminal biotin on a linker: ado-ado).
Design: key: below the threshold = too weak to quantify, mostly under pKd 3.1 to 4
With EVNETDDTKM [KCNJ1, P48048] the pKd was “below the threshold”. LSEFKAMDSI [CTNNA1, P35221] was tested, and the pKd was “below the threshold”.

The binders below were run against T3, DFNB31_3, Q9P202 (assay: holdup assay). Conditions: plain residues with an end cap or a label only (N-terminal biotin on a linker: ado-ado).
Design: key: below the threshold = too weak to quantify, mostly under pKd 3.1 to 4
With EVNETDDTKM [KCNJ1, P48048] the pKd was “below the threshold”. For LSEFKAMDSI [CTNNA1, P35221], the pKd was “below the threshold”.

These binders were tested against DLG1_3, Q12959 (assay: holdup assay). Conditions: plain residues with an end cap or a label only (N-terminal biotin on a linker: ado-ado).
Chain of DLG1_3, Q12959 (Q12959 457-571): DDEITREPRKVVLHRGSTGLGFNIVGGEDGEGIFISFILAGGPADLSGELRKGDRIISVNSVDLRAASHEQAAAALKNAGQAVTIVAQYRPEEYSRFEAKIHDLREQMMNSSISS
Design: key: below the threshold = too weak to quantify, mostly under pKd 3.1 to 4
EVNETDDTKM [KCNJ1, P48048] was tested, and the pKd was “below the threshold”. With LSEFKAMDSI [CTNNA1, P35221] the pKd was “below the threshold”.

What follows are binders tested against DLG4_3, P78352 (assay: holdup assay). Conditions: plain residues with an end cap or a label only (N-terminal biotin on a linker: ado-ado).
Chain of DLG4_3, P78352 (P78352 306-403): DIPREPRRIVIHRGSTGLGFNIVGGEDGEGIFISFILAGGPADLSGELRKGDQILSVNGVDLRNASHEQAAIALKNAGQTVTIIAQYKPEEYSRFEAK
Design: key: below the threshold = too weak to quantify, mostly under pKd 3.1 to 4
EVNETDDTKM [KCNJ1, P48048] was tested, and the pKd was “below the threshold”. In the case of LSEFKAMDSI [CTNNA1, P35221], the pKd is reported as “below the threshold”.

Each binder was assayed against FRMPD3, Q5JV73 (assay: holdup assay). Conditions: plain residues with an end cap or a label only (N-terminal biotin on a linker: ado-ado).
Chain of FRMPD3, Q5JV73 (Q5JV73 12-100): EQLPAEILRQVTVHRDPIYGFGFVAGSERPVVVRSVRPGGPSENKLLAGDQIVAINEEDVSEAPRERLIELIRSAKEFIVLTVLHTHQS
Design: key: below the threshold = too weak to quantify, mostly under pKd 3.1 to 4
For EVNETDDTKM [KCNJ1, P48048], the pKd was “below the threshold”. For LSEFKAMDSI [CTNNA1, P35221], the pKd was “below the threshold”.

These binders were tested against GORASP2, Q9H8Y8 (assay: holdup assay). Conditions: plain residues with an end cap or a label only (N-terminal biotin on a linker: ado-ado).
Design: key: below the threshold = too weak to quantify, mostly under pKd 3.1 to 4
EVNETDDTKM [KCNJ1, P48048] was tested, and the pKd was “below the threshold”. For LSEFKAMDSI [CTNNA1, P35221], the pKd was “below the threshold”.

What follows are binders tested against GRID2IP_1, A4D2P6 (assay: holdup assay). Conditions: plain residues with an end cap or a label only (N-terminal biotin on a linker: ado-ado).
Chain of GRID2IP_1, A4D2P6 (A4D2P6 1-87): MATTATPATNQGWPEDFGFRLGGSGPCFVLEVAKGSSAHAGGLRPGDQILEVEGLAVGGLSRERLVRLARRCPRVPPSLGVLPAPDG
Design: key: below the threshold = too weak to quantify, mostly under pKd 3.1 to 4
In the case of EVNETDDTKM [KCNJ1, P48048], the pKd is reported as “below the threshold”. For LSEFKAMDSI [CTNNA1, P35221], the pKd was “below the threshold”.

These binders were tested against T4, GRIP1_2, Q9Y3R0 (assay: holdup assay). Conditions: plain residues with an end cap or a label only (N-terminal biotin on a linker: ado-ado).
Design: key: below the threshold = too weak to quantify, mostly under pKd 3.1 to 4
In the case of EVNETDDTKM [KCNJ1, P48048], the pKd is reported as “below the threshold”. With LSEFKAMDSI [CTNNA1, P35221] the pKd was “below the threshold”.

Each binder was assayed against T5, GRIP1_3, Q9Y3R0 (assay: holdup assay). Conditions: plain residues with an end cap or a label only (N-terminal biotin on a linker: ado-ado).
Design: key: below the threshold = too weak to quantify, mostly under pKd 3.1 to 4
With EVNETDDTKM [KCNJ1, P48048] the pKd was “below the threshold”. In the case of LSEFKAMDSI [CTNNA1, P35221], the pKd is reported as “below the threshold”.

Each binder was assayed against T6, GRIP1_5, Q9Y3R0 (assay: holdup assay). Conditions: plain residues with an end cap or a label only (N-terminal biotin on a linker: ado-ado).
Design: key: below the threshold = too weak to quantify, mostly under pKd 3.1 to 4
In the case of EVNETDDTKM [KCNJ1, P48048], the pKd is reported as “below the threshold”. LSEFKAMDSI [CTNNA1, P35221] was tested, and the pKd was “below the threshold”.

What follows are binders tested against GRIP2_3, Q9C0E4 (assay: holdup assay). Conditions: plain residues with an end cap or a label only (N-terminal biotin on a linker: ado-ado).
Chain of GRIP2_3, Q9C0E4 (Q9C0E4 238-339): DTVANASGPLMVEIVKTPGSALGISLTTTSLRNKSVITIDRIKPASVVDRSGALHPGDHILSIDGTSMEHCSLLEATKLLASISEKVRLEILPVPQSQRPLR
Design: key: below the threshold = too weak to quantify, mostly under pKd 3.1 to 4
Work on EVNETDDTKM [KCNJ1, P48048] yielded a pKd of 3.69. In the case of LSEFKAMDSI [CTNNA1, P35221], the pKd is reported as “below the threshold”.

These binders were tested against GRIP2_7, Q9C0E4 (assay: holdup assay). Conditions: plain residues with an end cap or a label only (N-terminal biotin on a linker: ado-ado).
Chain of GRIP2_7, Q9C0E4 (Q9C0E4 934-1023): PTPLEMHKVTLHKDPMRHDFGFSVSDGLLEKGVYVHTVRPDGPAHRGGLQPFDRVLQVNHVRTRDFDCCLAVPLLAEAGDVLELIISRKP
Design: key: below the threshold = too weak to quantify, mostly under pKd 3.1 to 4
For EVNETDDTKM [KCNJ1, P48048], the pKd was “below the threshold”. With LSEFKAMDSI [CTNNA1, P35221] the pKd was “below the threshold”.

What follows are binders tested against HTRA2, O43464 (assay: holdup assay). Conditions: plain residues with an end cap or a label only (N-terminal biotin on a linker: ado-ado).
Chain of HTRA2, O43464 (O43464 355-458): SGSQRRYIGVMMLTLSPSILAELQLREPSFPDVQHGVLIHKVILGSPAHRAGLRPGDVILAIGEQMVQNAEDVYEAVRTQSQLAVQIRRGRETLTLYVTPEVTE
Design: key: below the threshold = too weak to quantify, mostly under pKd 3.1 to 4
In the case of EVNETDDTKM [KCNJ1, P48048], the pKd is reported as “below the threshold”. In the case of LSEFKAMDSI [CTNNA1, P35221], the pKd is reported as “below the threshold”.

What follows are binders tested against LAP2, Q96RT1 (assay: holdup assay). Conditions: plain residues with an end cap or a label only (N-terminal biotin on a linker: ado-ado).
Chain of LAP2, Q96RT1 (Q96RT1 other isoform, or with tags, fused parts or gaps): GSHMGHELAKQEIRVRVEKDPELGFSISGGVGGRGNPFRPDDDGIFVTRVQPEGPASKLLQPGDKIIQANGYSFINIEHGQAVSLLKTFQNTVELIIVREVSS
Design: key: below the threshold = too weak to quantify, mostly under pKd 3.1 to 4
EVNETDDTKM [KCNJ1, P48048] gave a pKd of 3.5. With LSEFKAMDSI [CTNNA1, P35221] the pKd was “below the threshold”.

Each binder was assayed against T7, LIN7C, Q9NUP9 (assay: holdup assay). Conditions: plain residues with an end cap or a label only (N-terminal biotin on a linker: ado-ado).
Design: key: below the threshold = too weak to quantify, mostly under pKd 3.1 to 4
With EVNETDDTKM [KCNJ1, P48048] the pKd was “below the threshold”. For LSEFKAMDSI [CTNNA1, P35221], the pKd was “below the threshold”.

Each binder was assayed against MAGI2_2, Q86UL8 (assay: holdup assay). Conditions: plain residues with an end cap or a label only (N-terminal biotin on a linker: ado-ado).
Chain of MAGI2_2, Q86UL8 (Q86UL8 410-522): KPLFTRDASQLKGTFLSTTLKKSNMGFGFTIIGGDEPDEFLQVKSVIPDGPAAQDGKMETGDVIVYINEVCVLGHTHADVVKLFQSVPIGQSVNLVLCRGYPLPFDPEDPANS
Design: key: below the threshold = too weak to quantify, mostly under pKd 3.1 to 4
EVNETDDTKM [KCNJ1, P48048] was tested, and the pKd was “below the threshold”. In the case of LSEFKAMDSI [CTNNA1, P35221], the pKd is reported as “below the threshold”.

The binders below were run against MAGI2_4, Q86UL8 (assay: holdup assay). Conditions: plain residues with an end cap or a label only (N-terminal biotin on a linker: ado-ado).
Chain of MAGI2_4, Q86UL8 (Q86UL8 772-865): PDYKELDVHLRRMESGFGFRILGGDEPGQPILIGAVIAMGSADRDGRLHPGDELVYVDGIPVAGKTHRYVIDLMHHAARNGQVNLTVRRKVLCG
Design: key: below the threshold = too weak to quantify, mostly under pKd 3.1 to 4
EVNETDDTKM [KCNJ1, P48048] showed a pKd of 3.63. In the case of LSEFKAMDSI [CTNNA1, P35221], the pKd is reported as “below the threshold”.

Each binder was assayed against T8, MPP7, Q5T2T1 (assay: holdup assay). Conditions: plain residues with an end cap or a label only (N-terminal biotin on a linker: ado-ado).
Design: key: below the threshold = too weak to quantify, mostly under pKd 3.1 to 4
In the case of EVNETDDTKM [KCNJ1, P48048], the pKd is reported as “below the threshold”. In the case of LSEFKAMDSI [CTNNA1, P35221], the pKd is reported as “below the threshold”.

These binders were tested against PDZRN4_1, Q6ZMN7 (assay: holdup assay). Conditions: plain residues with an end cap or a label only (N-terminal biotin on a linker: ado-ado).
Chain of PDZRN4_1, Q6ZMN7 (Q6ZMN7 213-318): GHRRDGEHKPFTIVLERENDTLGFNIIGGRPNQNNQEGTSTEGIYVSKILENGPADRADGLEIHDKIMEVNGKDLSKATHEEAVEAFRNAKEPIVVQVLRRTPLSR
Design: key: below the threshold = too weak to quantify, mostly under pKd 3.1 to 4
With EVNETDDTKM [KCNJ1, P48048] the pKd was “below the threshold”. With LSEFKAMDSI [CTNNA1, P35221] the pKd was “below the threshold”.

These binders were tested against SCRIB_1, Q14160 (assay: holdup assay). Conditions: plain residues with an end cap or a label only (N-terminal biotin on a linker: ado-ado).
Chain of SCRIB_1, Q14160 (Q14160 718-814): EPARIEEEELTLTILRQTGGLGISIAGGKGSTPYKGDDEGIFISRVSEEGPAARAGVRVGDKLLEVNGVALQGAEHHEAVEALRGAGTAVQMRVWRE
Design: key: below the threshold = too weak to quantify, mostly under pKd 3.1 to 4
For EVNETDDTKM [KCNJ1, P48048], the pKd was “below the threshold”. In the case of LSEFKAMDSI [CTNNA1, P35221], the pKd is reported as “below the threshold”.

Each binder was assayed against SCRIB_2, Q14160 (assay: holdup assay). Conditions: plain residues with an end cap or a label only (N-terminal biotin on a linker: ado-ado).
Chain of SCRIB_2, Q14160 (Q14160 857-960): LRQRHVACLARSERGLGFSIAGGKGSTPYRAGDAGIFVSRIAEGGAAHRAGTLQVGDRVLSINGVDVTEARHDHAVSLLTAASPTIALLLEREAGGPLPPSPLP
Design: key: below the threshold = too weak to quantify, mostly under pKd 3.1 to 4
EVNETDDTKM [KCNJ1, P48048] gave a pKd of 3.83. For LSEFKAMDSI [CTNNA1, P35221], the pKd was “below the threshold”.

The binders below were run against SNX27, Q96L92 (assay: holdup assay). Conditions: plain residues with an end cap or a label only (N-terminal biotin on a linker: ado-ado).
Design: key: below the threshold = too weak to quantify, mostly under pKd 3.1 to 4
For EVNETDDTKM [KCNJ1, P48048], the pKd was 4.6. For LSEFKAMDSI [CTNNA1, P35221], the pKd was “below the threshold”.

These binders were tested against T9, SYNJ2BP, P57105 (assay: holdup assay). Conditions: plain residues with an end cap or a label only (N-terminal biotin on a linker: ado-ado).
Design: key: below the threshold = too weak to quantify, mostly under pKd 3.1 to 4
EVNETDDTKM [KCNJ1, P48048] showed a pKd of 4.39. LSEFKAMDSI [CTNNA1, P35221] was tested, and the pKd was “below the threshold”.

Each binder was assayed against TJP2_1, Q9UDY2 (assay: holdup assay). Conditions: plain residues with an end cap or a label only (N-terminal biotin on a linker: ado-ado).
Chain of TJP2_1, Q9UDY2 (Q9UDY2 24-128): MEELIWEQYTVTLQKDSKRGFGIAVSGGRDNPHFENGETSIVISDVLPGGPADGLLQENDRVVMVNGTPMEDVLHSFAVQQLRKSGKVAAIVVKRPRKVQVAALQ
Design: key: below the threshold = too weak to quantify, mostly under pKd 3.1 to 4
EVNETDDTKM [KCNJ1, P48048] was tested, and the pKd was “below the threshold”. LSEFKAMDSI [CTNNA1, P35221] was tested, and the pKd was “below the threshold”.

What follows are binders tested against T10, TJP3_3, O95049 (assay: holdup assay). Conditions: plain residues with an end cap or a label only (N-terminal biotin on a linker: ado-ado).
Design: key: below the threshold = too weak to quantify, mostly under pKd 3.1 to 4
For EVNETDDTKM [KCNJ1, P48048], the pKd was “below the threshold”. In the case of LSEFKAMDSI [CTNNA1, P35221], the pKd is reported as “below the threshold”.
